The DeepSol protein solubility set

assay: soluble on expression in E. coli; label from the status in PepcDB or PDB records

Sequence | soluble on expression in E. coli
YTDYEERRLIHEVPIIVPRGTGKTTLGSAIAEVGQIIDGEWGADIQLLAYSREQAGYLFNASRAMLSNEESLLHYMREADILRSTKQGILYETTNSLMSIKTSDYESLDGTNAHYNIFDEVHTYDDDFIKVVNDGSSRKRKNWITWYISTNGTKRDKLFDKYYNIWVDILDDKIINDSVMPWIYQLDDVSEIHDPDMWQKAMPLLGITTEKETIARDIEMSKNDPAQQAELMAKTFNLPVNNYLAYFSNEECKGWSDKFDESLFVGDDERNARCVIGIDLSDVNDICSISFMVVRGEERHYLNKKFMPRHTIETLPKELRDKYTEWELSGMLHVHELDYNDQAYIFEELRQFMSDNRILPVAVGYDRYNARELIRLFNDYYGDICHDIPQTVKSLSNPLKVYKEKAKMGKIIFDDPVATWNHANVRVKIDANNNIFPNKEKAKEKIDVFASQLDAFICYENFKEDLSYYFD | not soluble
MGSDKIHHHHHHMMTTVKDSTPAARELYLDLLVRILLNTIYQDPAINPGVRPMVVEPFNPKTRAIGKDWPTQAHTMVGQARLENLRQLSQQVLDDGIVGDFIETGVWRGGCCILMRGVLAANQIHDRKVYVADSFAGLPAPNVELYPRDTGWDLHEFKELAVSLQTVKDNFSRYGLLDEQVVFVEGMFSDTLPSLSAGPFALLRLDGDLYESTIVALNSLYPKLSRGGVVIIDDRALDPCRRAVIDFRDKHGITAPMQEVDWTGSWWRKE | not soluble
MSLRSTAVLALLLCAGQVFALPVNSPMTKGDTKVMKCVLEVISDSLSKPSPMPVSPECLETLQGDERILSILRHQNLLKELQDLALQGAKERAQQQQEQQHSSFEDELSEVFENQSPDAKHRDAAAEVPSRDTMEKRKDSDKGQQDGFEATTEGPRPQAFPEPNEGHHHHHH | soluble
MTRQSQDGDATSTPAERAAAARAAAAEAARIAAEAAAAAEEAEKEARDAEAAENRAPAGVAASSGAAADIAAGYSSEGAALELGTVVLDGVVDSAARVRIPLATVNRHGLVAGATGTGKTKTLQGIAEQLSAAGVPVVMADMKGDLSGLSQPGEAGDKITTRASETGDGEWRPAASPVEFLSLGTEGLGIPVRATITAFGPILLAKVLGLNETQESTLGLIFHWADVQGLALLDLLDLRSVIAHLTSDEGKADLKGIGGVSPATAGVILRALVNLEADGGDTFFGEPELETEDLLRVIDGKGVITLFELGAQAARPALFTTFLMWVLADLFQTLPEEGDLDKPKLVFIFDEAHLLFADASKAFLQQVEQTVKLIRSKGVGVFFCTQLPTDVPNGVLSQLGARIQHALRAFTPDDQKALTKTVRTYPTTENYDLEKALTSLGIGEAIVTVLSERGAPTPVAWTRIRPPRSLMDTIGTDAITAAASSSPLSAKYGQTVDRESAYEKLTAKVAGAPAAEPGLDLPPLPDLPTPPPAQPEGPNMAEQILGNSAVKSFLRSAASAAGREISRSIFGTGKRRRR | not soluble
MSLSINSETLVNHMNHEIAAIQPSDILAFNAEIANIPGIVRLTLGEPDFNTPEHVKQAAIESIEADESHYAPSNGTLALRTAAAEFLAAKYDVHYDPASEVIITAGATGGIYTALTSILNPGDEVLIPTPIFPLYIAIVKLSGATPVFMDTSDNGFVLSPDQLQTTLAAHPKTKAVVLNFPSNPTGVTYRHDDLKALAAVLADQPIFVLSDEIYSELTYGEPHESIANYLPTQTILLNGVSKSHAMTGWRIGIMCAPKAITAQLGKIHQFTVTSTTTNAQAAAAGLKQLTSRTAGVDTIDIPAAKAAGLVVTNVEGHHHHHH | not soluble
MGSDKIHHHHHHMVVNESMYQLGSVRSAIRELFEYGKKRAAIVGKENVYDFSIGNPSIPAPQIVNDTIKELVTDYDSVALHGYTSAQGDVETRAAIAEFLNNTHGTHFNADNLYMTMGAAASLSICFRALTSDAYDEFITIAPYFPEYKVFVNAAGARLVEVPADTEHFQIDFDALEERINAHTRGVIINSPNNPSGTVYSEETIKKLSDLLEKKSKEIGRPIFIIADEPYREIVYDGIKVPFVTKYYDNTLVCYSYSKSLSLPGERIGYVLVPDEVYDKAELYAAVCGAGRALGYVCAPSLFQKMIVKCQGATGDINAYKENRDLLYEGLTRIGYHCFKPDGAFYMFVKALEDDSNAFCEKAKEEDVLIVAADGFGCPGWVRISYCVDREMIKHSMPAFEKIYKKYNK | not soluble
MSGRPFLLIHTFKDISKFREGDRDYSDIEVRYNIPWRLRIFKKEGFLGLKLYCEKEECIETKKWTFKTKFTMKLVAVDLPSSQSDFNNSFLLKHTFNNISKFVERDSDYSDAEDHYNIAWKIRILKYEECLGIYLDCQKEIYEGRKWSIKCEFKSSLISASGKFYSVQYTDVFDNRDSSMGSSTFISWIDMEKEYVTNDDCIDVTIHAKIISITDEPCEMKTFALSHTIKNMSSIREGEDYDTDTQYRFNIPWSLKILNRNEFSGLFIRCEKQLCKSRKWSIETEYQLKIVSPNGRSELFGGTYVFDNPNIYGWHIIRWSSLEDRYIVNDTLTVEAQVTIVKMTGIEDETPIEKPSGIVIPVGNQEFSLERWMEMAFDH | not soluble
MYNVMITGAGKIGSLIACLLADSGSYQVHLADLEFNGSDVTRLLTALPEIKTVALDVKDEQSTQAYLQKHNIIAVISSLPYFLNTHVAKAAKAAKAHYFDLTEDTSVTEAVKAIAQNAETAFVPQCGLAPGFISIAANSLMQEFEKCHHARLRVGALPQRANNALHYSLTWSTDG | not soluble
MGYIVDISKWNGNINWDVAAPQLDFVIARVQDGSNYIDPLYKSYVQAMKTRNIPFGNYAFCRFISIADAKKEAQDFWNRGDKSATVWVADVEVKTMDDMIAGTQAFIDELRRLGAKKVGLYVGHHMYGPFGMANVKSDFVWIPRYGGNKPAYPCDIWQYTETGNVPGIGKCDLNQLIGNKPLSWFTESVPKQENIQAQVSKQNIIQSGAFSPYETPDVMGALTSLKMTATFILQSDGLTYFVTEPTSDTQLNALKSWLDRKGWWYEVK | not soluble
MVIRRCEKMEEETWKLKIGMCIQAKDFYSKRTDCSVHRPDVGGGLITEGNGYRVVVHDQCEEPNPFIIATTKQTHFGVTHSYIEFSNSNTGAPENIPDCSKHILISVYCDQEASGLDFHTLKYVESNYLHITVKYDTSCINHLGVNYSFMNECERKLTSIYETDTLTCGAKDIQTRDKYLKTCTNTKFDRSVYKTHMQKSKILHVKTELE | not soluble
MSLLTLLRPATVQDCKDIFKVHLHSVQYTCILSYNEHALKVWEGLLNTESYLPTISDPDKALWVAEYKGNIQGFFQIDCQEAQLDALYVHPLFHNLGLGTALLHQAETIAHKSGLSFLKLYASLNSVPFYLLNRYESLGSAVLQLDPSIKIKCELMRKHL | not soluble
MGHHHHHHSHMHSLATAAPVPTTLAQVDREKIYQWINELSSPETRENALLELSKKRESVPDLAPMLWHSFGTIAALLQEIVNIYPSINPPTLTAHQSNRVCNALALLQCVASHPETRSAFLAAHIPLFLYPFLHTVSKTRPFEYLRLTSLGVTGALVKTDEQEVINFLLTTEIIPLCLRIMESGSELSKTVATFILQKILLDDTGLAYICQTYERFSHVAMILGKMVLQLSKEPSARLLKHVVRCYLRLSDNPRFSDLTFCWSSFQRK | not soluble
MSLLSYQHIYHAGNLADVQKHALLALALDYLTRKDKPLSYLETHAGRGLYHLDAAEAVRTGEAGAGIGRAEGAAWFDPAHPMTRVLAAVRTDHGAMAYPGSPLVAAHLLRPGDMMHLAELHPQEHAALEQAMAGYPARVYRRDGVEMAQSLLPPEPRRGMMLIDPSYEVKSDYDRIPAVIAQLHRKWNVGVIALWYPILTDERHKVMLAALERLDLPRVLRHEVRFAPAREGHRMVGSGMFVINAPFGLADEAARLSGLFAQLEGHHHHHH | soluble
MKIFKFTPENNLFYGYILEDMKTGFNILREIMVEGYRPSIARLYDAEDGTQHFTHFADGKCVLIFMAEGNPRIAKVTGEGIAEIVARYPQCQRVDSKLIETWFNNLNWGPDKVAAERVQILKTGNMGFTTEVSGCWSCIHEIYESVINRIRTEFPHADDITMLGGHSSHSYQNGTNMYFVYDYNVVDCKPEEEIDKYHNPLNKIICEETIRLGGSMVHHHGIGKHRVHWSKLEHGSAWALLEGLKKQFDPNGIMNTGTIYPIEK | soluble
MSLEMEHINENTIRVLIGNEDLADRGITFLDLLGNHKDVENFFYSILEEVDVEDEFQGSEAVTFQVLPKNDGLELFISKNVAMDDLSSLEGLSEVNADVSELIRKQIEADKAAADELDEMEATDETNRNVIFELDNFEAMIQLSKEVFMQSVLTNLYTYNDRYYLQVLFLTDELEKTNVDNEIAQILEFAHKTTVTQDTLVEYGTCIMERSALELTRYYFNDEGHHHHHH | soluble
GPGSMTEYLKDIGRTKPGDPMPPINLGPYDNPLLWNMLDPFGADRGHQRRPMSVSRDFMELHNVPIIFRDQCVHRWVPFHRCLKNLKPVTWGTANCHEFEEAWMICRAYETYRNQLLKTKFMELTKDYTAEDKKFFPSLLHLSVPTYMNSFYWTMAASQRLSGWDERDPANPMTWREPNRALMRAEFSPTNWEQGNLTNATGHKLITDDLVFDMVPGFPLPEDKRPETLY | not soluble
MSDDARFQQLNCWLDSCLPELFVAEGWGEVPPAELIPASSDASFRRYFRWQGGDRSLVVMDAPPPQEDCRPFVKVAGLLAGAGVHVPRILAQDLENGFLLLSDLGRQTYLDVLHPGNADELFEPALDALIAFQKVDVAGVLPAYDEAVLRRELQLFPDWYLARHLGVELEGETLARWKRICDLLVRSALEQPRVFVHRDYMPRNLMLSEPNPGVLDFQDALHGPVTYDVTCLYKDAFVSWPEPRVHAALNRYWKKATWAGIPLPPSFEDFLRASDLMGVQRHLKVIGIFARICHRDGKPRYLGDVPRFFRYLETAVARRPELAELGELLASLPQGAEA | not soluble
GPGSMRLLSKAAHPDGSMEVRVSVGTAEDLWHLYNFILVGDLVLTKTRRKVPRENALGTLAAEMKMLKLEVEVKHIAFTPDELRIQGVNKKENNFVKTGAHHTLTIHANPPQEVRITKREWDSICEDRLKDACDESGKADTAAVLMSFGEAQVLLVTRSFVHIKAKVEVTISKKHKSDGKARDKSIERFFKQSLDALVTHVDFEKTKLVLLCSPGHVREEFHAYIKEVTQRADHGPLREVYLNLSRFLLVKVSSTTISGLKEALSDPGVAQRMESTKCVDDIRMWEKFQDTMNKDPDRCVYTPQYVYYAAMAGAVGGLMISDDVFRSENPTERRFFLSLVNFVRQSGSPTVNVFSSKHVTGEQLTQLGSVAAVLRFSCPEIDDMEVVPEFLASKEVEEFIRANATARVTV | not soluble
ALHEATRDLLGADSPSTVAAEVGAAIESILEFRINVIRVHRDGQLQPVHVNDKAEELLAERPTYDVGEGFPGEAFEEQQASVYTDIRDHDGGTALEPVVSWLYVPISEYGIISVGQTDPDAFDETDLNLVQIIASNAEVALQRLQKERELQRENDRLEQFASTVS | not soluble
MTKLTIFYDGTCPLCAKEMKALRQHDHKQEINTVDIYSDAFSAYPQINPDRANTILHALDNQGNLLLGLDVTYRAWQLVGRGWLYAPLRWPLIRPVADWLYLRFAQNRYRISYWLTGTSRCNSGRCSR | not soluble
MSLNRPEADREALWKIVHDRCEFGYRRTGAYAPCTFVDEQSGTALYKADFDPYQFLLIPLARITGIEDPALRESAGRNYLYDAWAARFLVTARLNNSLPESDVVLTINPKNARTQDQLHIHISCSSPTTSAALRNVDTSEYVGWKQLPIDLGGRRFQGLAVDTKAFESRNLFRDIYLKVTADGKKMENASIAVANVAQDQFLLLLAEGTEDQPVAAETLQDHDCSITKSEGHHHHHH | not soluble
MNQKAVILDEQAIRRALTRIAHEMIERNKGMNNCILVGIKTRGIYLAKRLAERIEQIEGNPVTVGEIDITLYRDDLSKKTSNDEPLVKGADIPVDITDQKVILVDDVLYTGRTVRAGMDALVDVGRPSSIQLAVLVDRGHRELPIRADYIGKNIPTSKSEKVMVQLDEVDQNDLVAIYENE | soluble
